Measured values as given in patent publication US20230080842A1 (WUHAN YZY BIOPHARMA, published 2023).

T1: Human VEGFA (human, UniProt P15692 207-395)
T1 construct: also called VEGF antigen; not shown: His tag
T1 sequence: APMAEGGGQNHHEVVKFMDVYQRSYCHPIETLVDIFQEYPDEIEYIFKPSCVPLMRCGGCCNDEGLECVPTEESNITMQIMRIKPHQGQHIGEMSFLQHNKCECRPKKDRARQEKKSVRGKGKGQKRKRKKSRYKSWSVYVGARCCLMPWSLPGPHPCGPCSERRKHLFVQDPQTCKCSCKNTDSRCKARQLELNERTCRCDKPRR

B1: Y206-B2 (bispecific antibody, human IgG1, kappa)
light: not shown
heavy: EVQLVESGGGLVQPGGSLRLSCAASGFTISDYWIHWVRQAPGKGLEWVAGITPAGGYTYYADSVKGRFTISADTSKNTAYLQMNSLRAEDTAVYYCARFVFFLPYAMDYWGQGTLVTVSSASTKGPSVFPLAPSSKSTSGGTAALGCLVKDYFPEPVTVSWNSGALTSGVHTFPAVLQSSGLYSLSSVVTVPSSSLGTQTYICNVNHKPSNTKVDKKVEPKSCDKTHTCPPCPAPPVAGPSVFLFPPKPKDTLMISRTPEVTCVVVDVSHEAPEVQFNWYVDGVEVHNAKTKPREEQFNSTFRVVSVLTVVHQDWLNGKEYKCKVSNKGLPAPIEKTISKTKGQPREPQVYTLPPSRDELTKNQVSLTCLVKGFYPSDIAVEWESNGQPENNYKTTPPVLDSDGSFFLYSKLTVDKSRWQQGNVFSCSVMHEALHNHYTQKSLSLSPGAGGGGSGGGGSGGGGSGEIVLTQSPATLSLSPGERATLSCRASQSVSSYLAWYQQKPGQAPRLLIYDASNRATGIPARFSGSGSGTDFTLTISSLEPEDFAVYYCQQSSNWPRTFGQGTKVEIKGGGGSGGGGSGGGGSQVQLVESGGGVVQPGRSLRLDCKASGITFSNSGMHWVRQAPGKGLEWVAVIWYDGSKRYYADSVKGRFTISRDNSKNTLFLQMNSLRAEDTAVYYCATNDDYWGQGTLVTVSS
notes: structure 2 IgG(H)-ScFv, B series; IgG G631 (anti-VEGF), scFv 5C4 (anti-PD-1)
B2: Y216-A1 (bispecific antibody, human IgG1, kappa)
light: DIQMTQSPSSLSASVGDRVTITCKASQDVGIAVAWYQQKPGKVPKLLIYWASTRHTGVPDRFSGSGSGTDFTLTISSLQPEDVATYYCQQYSSYPYTFGQGTKVEIKRTVAAPSVFIFPPSDEQLKSGTASVVCLLNNFYPREAKVQWKVDNALQSGNSQESVTEQDSKDSTYSLSSTLTLSKADYEKHKVYACEVTHQGLSSPVTKSFNRGEC
heavy: EVQLVESGGGLVQPGGSLRLSCAASGFDFSRYWMSWVRQAPGKGLEWIGEINPDSSTINYAPSLKDKFIISRDNAKNSLYLQMNSLRAEDTAVYYCARPDGNYWYFDVWGQGTLVTVSSASTKGPSVFPLAPSSKSTSGGTAALGCLVKDYFPEPVTVSWNSGALTSGVHTFPAVLQSSGLYSLSSVVTVPSSSLGTQTYICNVNHKPSNTKVDKKVEPKSCDKTHTCPPCPAPPVAGPSVFLFPPKPKDTLMISRTPEVTCVVVDVSHEAPEVQFNWYVDGVEVHNAKTKPREEQFNSTFRVVSVLTVVHQDWLNGKEYKCKVSNKGLPAPIEKTISKTKGQPREPQVYTLPPSRDELTKNQVSLTCLVKGFYPSDIAVEWESNGQPENNYKTTPPVLDSDGSFFLYSKLTVDKSRWQQGNVFSCSVMHEALHNHYTQKSLSLSPGAGGGGSGGGGSGGGGSGEVQLVESGGGVVRPGGSLRLSCAASGFTFDDYGMSWVRQAPGKGLEWVSGINWNGGSTGYADSVKGRFTISRDNAKNSLYLQMNSLRAEDTAVYYCARGRSLLFDYWGQGTLVTVSRGGGGSGGGGSGGGGSSELTQDPAVSVALGQTVRITCQGDSLRSYYASWYQQKPGQAPVLVIYGKNNRPSGIPDRFSGSSSGNTASLTITGAQAEDEADYYCNSRDSSGNHVVFGGGTKLTVL
notes: structure 2 IgG(H)-ScFv, A series; IgG Elotuzumab (anti-SLAMF7), scFv NM3E2 (anti-CD16)
B3: Y216-B1 (bispecific antibody, human IgG1, kappa)
light: DIQMTQSPSSLSASVGDRVTITCKASQDVGIAVAWYQQKPGKVPKLLIYWASTRHTGVPDRFSGSGSGTDFTLTISSLQPEDVATYYCQQYSSYPYTFGQGTKVEIKRTVAAPSVFIFPPSDEQLKSGTASVVCLLNNFYPREAKVQWKVDNALQSGNSQESVTEQDSKDSTYSLSSTLTLSKADYEKHKVYACEVTHQGLSSPVTKSFNRGEC
heavy: EVQLVESGGGLVQPGGSLRLSCAASGFDFSRYWMSWVRQAPGKGLEWIGEINPDSSTINYAPSLKDKFIISRDNAKNSLYLQMNSLRAEDTAVYYCARPDGNYWYFDVWGQGTLVTVSSASTKGPSVFPLAPSSKSTSGGTAALGCLVKDYFPEPVTVSWNSGALTSGVHTFPAVLQSSGLYSLSSVVTVPSSSLGTQTYICNVNHKPSNTKVDKKVEPKSCDKTHTCPPCPAPPVAGPSVFLFPPKPKDTLMISRTPEVTCVVVDVSHEAPEVQFNWYVDGVEVHNAKTKPREEQFNSTFRVVSVLTVVHQDWLNGKEYKCKVSNKGLPAPIEKTISKTKGQPREPQVYTLPPSRDELTKNQVSLTCLVKGFYPSDIAVEWESNGQPENNYKTTPPVLDSDGSFFLYSKLTVDKSRWQQGNVFSCSVMHEALHNHYTQKSLSLSPGAGGGGSGGGGSGGGGSGSELTQDPAVSVALGQTVRITCQGDSLRSYYASWYQQKPGQAPVLVIYGKNNRPSGIPDRFSGSSSGNTASLTITGAQAEDEADYYCNSRDSSGNHVVFGGGTKLTVLGGGGSGGGGSGGGGSEVQLVESGGGVVRPGGSLRLSCAASGFTFDDYGMSWVRQAPGKGLEWVSGINWNGGSTGYADSVKGRFTISRDNAKNSLYLQMNSLRAEDTAVYYCARGRSLLFDYWGQGTLVTVSR
notes: structure 2 IgG(H)-ScFv, B series; IgG Elotuzumab (anti-SLAMF7), scFv NM3E2 (anti-CD16)
B4: ElotuzumAb (antibody, human IgG1, kappa, V domains shown)
VH: EVQLVESGGGLVQPGGSLRLSCAASGFDFSRYWMSWVRQAPGKGLEWIGEINPDSSTINYAPSLKDKFIISRDNAKNSLYLQMNSLRAEDTAVYYCARPDGNYWYFDVWGQGTLVTVSS
VL: DIQMTQSPSSLSASVGDRVTITCKASQDVGIAVAWYQQKPGKVPKLLIYWASTRHTGVPDRFSGSGSGTDFTLTISSLQPEDVATYYCQQYSSYPYTFGQGTKVEIKR
notes: anti-SLAMF7 monoclonal antibody, human IgG1 constant domains, kappa
B5: 3G12mAb (antibody, human IgG1, kappa, V domains shown)
VH: QVQLVQSGAEVKKPGSSVKVSCKASGYTFSSNVISWVRQAPGQGLEWMGGVIPIVDIANYAQRFKGRVTITADESTSTTYMELSSLRSEDTAVYYCASTLGLVLDAMDYWGQGTLVTVSS
VL: ETVLTQSPGTLSLSPGERATLSCRASQSLGSSYLAWYQQKPGQAPRLLIYGASSRAPGIPDRFSGSGSGTDFTLTISRLEPEDFAVYYCQQYADSPITFGQGTRLEIKR
notes: anti-TGF-β monoclonal antibody, human IgG1 constant domains, kappa
B6: Y316-A1 (bispecific antibody)
chain: EVQLVESGGGLVQPGGSLRLSCAASGFDFSRYWMSWVRQAPGKGLEWIGEINPDSSTINYAPSLKDKFIISRDNAKNSLYLQMNSLRAEDTAVYYCARPDGNYWYFDVWGQGTLVTVSSGGGGSGGGGSGGGGSDIQMTQSPSSLSASVGDRVTITCKASQDVGIAVAWYQQKPGKVPKLLIYWASTRHTGVPDRFSGSGSGTDFTLTISSLQPEDVATYYCQQYSSYPYTFGQGTKVEIKGGGGSASEVQLVESGGGVVRPGGSLRLSCAASGFTFDDYGMSWVRQAPGKGLEWVSGINWNGGSTGYADSVKGRFTISRDNAKNSLYLQMNSLRAEDTAVYYCARGRSLLFDYWGQGTLVTVSRGGGGSGGGGSGGGGSSELTQDPAVSVALGQTVRITCQGDSLRSYYASWYQQKPGQAPVLVIYGKNNRPSGIPDRFSGSSSGNTASLTITGAQAEDEADYYCNSRDSSGNHVVFGGGTKLTVLDKTHTCPPCPAPPVAGPSVFLFPPKPKDTLMISRTPEVTCVVVDVSHEAPEVQFNWYVDGVEVHNAKTKPREEQFNSTFRVVSVLTVVHQDWLNGKEYKCKVSNKGLPAPIEKTISKTKGQPREPQVYTLPPSRDELTKNQVSLTCLVKGFYPSDIAVEWESNGQPENNYKTTPPVLDSDGSFFLYSKLTVDKSRWQQGNVFSCSVMHEALHNHYTQKSLSLSPGK
notes: structure 3 Tandem-ScFv-Fc, A series, two identical fusion peptides; scFv Elotuzumab (anti-SLAMF7), scFv NM3E2 (anti-CD16)
B7: Y206-A2 (bispecific antibody, human IgG1, kappa)
light: not shown
heavy: EVQLVESGGGLVQPGGSLRLSCAASGFTISDYWIHWVRQAPGKGLEWVAGITPAGGYTYYADSVKGRFTISADTSKNTAYLQMNSLRAEDTAVYYCARFVFFLPYAMDYWGQGTLVTVSSASTKGPSVFPLAPSSKSTSGGTAALGCLVKDYFPEPVTVSWNSGALTSGVHTFPAVLQSSGLYSLSSVVTVPSSSLGTQTYICNVNHKPSNTKVDKKVEPKSCDKTHTCPPCPAPPVAGPSVFLFPPKPKDTLMISRTPEVTCVVVDVSHEAPEVQFNWYVDGVEVHNAKTKPREEQFNSTFRVVSVLTVVHQDWLNGKEYKCKVSNKGLPAPIEKTISKTKGQPREPQVYTLPPSRDELTKNQVSLTCLVKGFYPSDIAVEWESNGQPENNYKTTPPVLDSDGSFFLYSKLTVDKSRWQQGNVFSCSVMHEALHNHYTQKSLSLSPGAGGGGSGGGGSGGGGSGQVQLVESGGGVVQPGRSLRLDCKASGITFSNSGMHWVRQAPGKGLEWVAVIWYDGSKRYYADSVKGRFTISRDNSKNTLFLQMNSLRAEDTAVYYCATNDDYWGQGTLVTVSSGGGGSGGGGSGGGGSEIVLTQSPATLSLSPGERATLSCRASQSVSSYLAWYQQKPGQAPRLLIYDASNRATGIPARFSGSGSGTDFTLTISSLEPEDFAVYYCQQSSNWPRTFGQGTKVEIK
notes: structure 2 IgG(H)-ScFv, A series; IgG G631 (anti-VEGF), scFv 5C4 (anti-PD-1)
B8: Y416-B1 (bispecific antibody, human IgG1, kappa)
light: EVQLVESGGGLVQPGGSLRLSCAASGFDFSRYWMSWVRQAPGKGLEWIGEINPDSSTINYAPSLKDKFIISRDNAKNSLYLQMNSLRAEDTAVYYCARPDGNYWYFDVWGQGTLVTVSSGGGGSGGGGSGGGGSSELTQDPAVSVALGQTVRITCQGDSLRSYYASWYQQKPGQAPVLVIYGKNNRPSGIPDRFSGSSSGNTASLTITGAQAEDEADYYCNSRDSSGNHVVFGGGTKLTVLRTVAAPSVFIFPPSDEQLKSGTASVVCLLNNFYPREAKVQWKVDNALQSGNSQESVTEQDSKDSTYSLSSTLTLSKADYEKHKVYACEVTHQGLSSPVTKSFNRGEC
heavy: DIQMTQSPSSLSASVGDRVTITCKASQDVGIAVAWYQQKPGKVPKLLIYWASTRHTGVPDRFSGSGSGTDFTLTISSLQPEDVATYYCQQYSSYPYTFGQGTKVEIKGGGGSGGGGSGGGGSEVQLVESGGGVVRPGGSLRLSCAASGFTFDDYGMSWVRQAPGKGLEWVSGINWNGGSTGYADSVKGRFTISRDNAKNSLYLQMNSLRAEDTAVYYCARGRSLLFDYWGQGTLVTVSRASTKGPSVFPLAPSSKSTSGGTAALGCLVKDYFPEPVTVSWNSGALTSGVHTFPAVLQSSGLYSLSSVVTVPSSSLGTQTYICNVNHKPSNTKVDKKVEPKSCDKTHTCPPCPAPPVAGPSVFLFPPKPKDTLMISRTPEVTCVVVDVSHEAPEVQFNWYVDGVEVHNAKTKPREEQFNSTFRVVSVLTVVHQDWLNGKEYKCKVSNKGLPAPIEKTISKTKGQPREPQVYTLPPSRDELTKNQVSLTCLVKGFYPSDIAVEWESNGQPENNYKTTPPVLDSDGSFFLYSKLTVDKSRWQQGNVFSCSVMHEALHNHYTQKSLSLSPGK

Columns and labels:
Assay in all cases: ELISA, plate coated with His-tagged antigen
Human VEGFA = biological target: T1, Human VEGFA
Protocol: 2) addition of antibody: according to the experimental design, operation was performed at room temperature, and the antibody was diluted in gradient with 1% BSA in PBS. […] The diluted antibody was added into wells of microtiter plate at 200 μl/well, incubated at room temperature for 2h, and then the supernatant was discarded;

Human PD-1 = biological target: T2, Human PD-1 (human, UniProt Q15116 25-170)
T2 construct: also called PD-1 antigen; not shown: His tag

Human SLAMF7 = biological target: T3, Human SLAMF7 (human, UniProt Q9NQ25 23-226)
T3 construct: also called SLAMF7 antigen; not shown: His tag

Human TGF-β1 = biological target: T4, Human TGF-β1 (human, UniProt P01137 279-390)
T4 construct: also called TGF-01; TGF-β1 antigen; not shown: His tag
T4 sequence (P01137 279-390 limits assumed): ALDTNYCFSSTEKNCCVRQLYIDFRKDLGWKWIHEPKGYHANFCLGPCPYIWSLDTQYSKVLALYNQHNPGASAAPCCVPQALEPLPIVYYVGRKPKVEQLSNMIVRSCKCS

T2 sequence (Q15116 25-170): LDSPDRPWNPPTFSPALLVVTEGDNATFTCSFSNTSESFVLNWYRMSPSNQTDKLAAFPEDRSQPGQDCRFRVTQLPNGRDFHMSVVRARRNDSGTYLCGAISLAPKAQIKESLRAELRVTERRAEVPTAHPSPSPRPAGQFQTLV

Row | Binder | EC50 (Human SLAMF7) [nM] | other results
1 | B1 | – | EC50 (Human VEGFA): 0.0596 nM; EC50 (Human PD-1): 0.312 nM
2 | B2 | 0.715 | –
3 | B3 | 0.499 | –
4 | B4 | 0.628 | –
5 | B5 | – | EC50 (Human TGF-β1): 0.0026 nM
6 | B6 | 9.18 | –
7 | B7 | – | EC50 (Human VEGFA): 0.063 nM; EC50 (Human PD-1): 0.45 nM
8 | B8 | 5.59 | –
